Source: patent publication US20220143024A1, “METHODS OF USING IMIPRIDONES” (Board of Regents, The University of Texas System, priority 2019, published 2022)

What was measured:
Assay in all cases: BioID-MS +ONC201
AARS2 (human) = AARS2 (human) (UniProt Q5JTZ9)
ABAT (human) = ABAT (human) (UniProt P80404)
ACADVL (human) = ACADVL (human) (UniProt P49748)
ACAT1 (human) = ACAT1 (human) (UniProt P24752)
AFG3L2 (human) = AFG3L2 (human) (UniProt Q9Y4W6)
ALDH1L2 (human) = ALDH1L2 (human) (UniProt Q3SY69)
ARG2 (human) = ARG2 (human) (UniProt P78540)
Sequence of ARG2 (human) (P78540 23-354 limits assumed): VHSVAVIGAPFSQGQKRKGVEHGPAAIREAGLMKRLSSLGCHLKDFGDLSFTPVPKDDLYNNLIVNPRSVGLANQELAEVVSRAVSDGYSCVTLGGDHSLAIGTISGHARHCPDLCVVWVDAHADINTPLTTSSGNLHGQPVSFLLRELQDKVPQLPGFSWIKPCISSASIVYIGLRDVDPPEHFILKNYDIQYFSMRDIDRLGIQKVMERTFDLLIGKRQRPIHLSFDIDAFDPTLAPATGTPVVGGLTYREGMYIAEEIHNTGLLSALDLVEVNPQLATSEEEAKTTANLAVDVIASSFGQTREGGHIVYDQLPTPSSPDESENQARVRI

C8orf82 (human) = C8orf82 (human) (UniProt Q6P1X6)
Sequence of C8orf82 (human) (Q6P1X6 whole entry): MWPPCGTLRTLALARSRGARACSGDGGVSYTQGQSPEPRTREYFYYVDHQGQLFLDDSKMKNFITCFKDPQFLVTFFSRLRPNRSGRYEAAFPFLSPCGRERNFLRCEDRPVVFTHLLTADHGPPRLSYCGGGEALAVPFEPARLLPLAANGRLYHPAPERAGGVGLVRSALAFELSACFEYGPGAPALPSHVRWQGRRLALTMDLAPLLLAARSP

CLYBL (human) = CLYBL (human) (UniProt Q8N0X4)
COQ8A (human) = COQ8A (human) (UniProt Q8NI60)
Sequence of COQ8A (human) (Q8NI60 163-647 limits assumed): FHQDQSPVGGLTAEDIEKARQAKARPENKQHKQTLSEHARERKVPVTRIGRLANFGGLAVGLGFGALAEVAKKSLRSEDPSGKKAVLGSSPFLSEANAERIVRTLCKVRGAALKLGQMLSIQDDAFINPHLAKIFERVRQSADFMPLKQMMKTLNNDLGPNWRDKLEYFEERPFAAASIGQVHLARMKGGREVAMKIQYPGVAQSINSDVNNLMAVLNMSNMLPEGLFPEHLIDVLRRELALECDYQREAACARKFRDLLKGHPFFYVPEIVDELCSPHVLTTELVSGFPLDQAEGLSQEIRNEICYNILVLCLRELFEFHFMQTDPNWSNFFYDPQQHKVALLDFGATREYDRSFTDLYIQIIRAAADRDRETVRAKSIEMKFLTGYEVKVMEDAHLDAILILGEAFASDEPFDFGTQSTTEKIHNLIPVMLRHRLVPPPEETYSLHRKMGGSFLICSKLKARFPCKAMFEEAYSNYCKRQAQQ

ERAL1 (human) = ERAL1 (human) (UniProt O75616)
FMC1 (human) = FMC1 (human) (UniProt Q96HJ9)
GATC (human) = GATC (human) (UniProt O43716)
Sequence of GATC (human) (O43716 58-136 limits assumed): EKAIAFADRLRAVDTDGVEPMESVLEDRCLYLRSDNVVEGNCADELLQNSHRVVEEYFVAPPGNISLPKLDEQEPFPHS

GFM1 (human) = GFM1 (human) (UniProt Q96RP9)
GLUD1 (human) = GLUD1 (human) (UniProt P00367)
HARS2 (human) = HARS2 (human) (UniProt P49590)
Sequence of HARS2 (human) (P49590 34-506 limits assumed): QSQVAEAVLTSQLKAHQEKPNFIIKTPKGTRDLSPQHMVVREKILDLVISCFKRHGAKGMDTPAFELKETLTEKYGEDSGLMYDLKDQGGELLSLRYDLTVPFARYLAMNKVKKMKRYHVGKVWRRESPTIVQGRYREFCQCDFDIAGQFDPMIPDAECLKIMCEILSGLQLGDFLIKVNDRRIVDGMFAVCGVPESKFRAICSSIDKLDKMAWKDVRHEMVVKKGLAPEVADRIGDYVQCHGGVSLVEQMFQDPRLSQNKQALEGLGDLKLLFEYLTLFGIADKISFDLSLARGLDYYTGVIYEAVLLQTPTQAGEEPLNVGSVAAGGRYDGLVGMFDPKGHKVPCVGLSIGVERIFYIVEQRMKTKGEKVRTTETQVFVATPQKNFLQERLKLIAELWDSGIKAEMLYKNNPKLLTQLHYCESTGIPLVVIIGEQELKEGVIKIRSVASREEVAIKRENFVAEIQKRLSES

HIBCH (human) = HIBCH (human) (UniProt Q6NVY1)
HINT2 (human) = HINT2 (human) (UniProt Q9BX68)
Sequence of HINT2 (human) (Q9BX68 18-163 limits assumed): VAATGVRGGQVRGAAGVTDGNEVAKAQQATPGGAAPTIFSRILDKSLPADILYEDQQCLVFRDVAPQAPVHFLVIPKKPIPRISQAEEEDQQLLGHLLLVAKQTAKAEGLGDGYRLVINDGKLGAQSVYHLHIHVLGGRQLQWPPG

IDH3A (human) = IDH3A (human) (UniProt P50213)
Sequence of IDH3A (human) (P50213 28-366 limits assumed): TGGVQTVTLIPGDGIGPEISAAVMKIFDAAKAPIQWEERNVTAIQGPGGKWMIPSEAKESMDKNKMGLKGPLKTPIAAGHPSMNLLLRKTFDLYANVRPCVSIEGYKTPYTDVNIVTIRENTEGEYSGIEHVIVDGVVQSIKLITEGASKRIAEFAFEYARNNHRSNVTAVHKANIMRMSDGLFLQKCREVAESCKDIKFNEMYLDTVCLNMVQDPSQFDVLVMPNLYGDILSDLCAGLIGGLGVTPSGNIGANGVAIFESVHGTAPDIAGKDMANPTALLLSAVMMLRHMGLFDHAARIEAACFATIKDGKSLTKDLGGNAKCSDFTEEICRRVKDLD

LARS2 (human) = LARS2 (human) (UniProt Q15031)
MARS2 (human) = MARS2 (human) (UniProt Q96GW9)
MMAB (human) = MMAB (human) (UniProt Q96EY8)
MRPL19 (human) = MRPL19 (human) (UniProt P49406)
MRPL21 (human) = MRPL21 (human) (UniProt Q7Z2W9)
MRPL40 (human) = MRPL40 (human) (UniProt Q9NQ50)
MRPL46 (human) = MRPL46 (human) (UniProt Q9H2W6)
MRPL55 (human) = MRPL55 (human) (UniProt Q7Z7F7)
MRPS11 (human) = MRPS11 (human) (UniProt P82912)
MRPS16 (human) = MRPS16 (human) (UniProt Q9Y3D3)
MRPS17 (human) = MRPS17 (human) (UniProt Q9Y2R5)
MRPS7 (human) = MRPS7 (human) (UniProt Q9Y2R9)
MTHFD1L (human) = MTHFD1L (human) (UniProt Q6UB35)
NDUFA2 (human) = NDUFA2 (human) (UniProt O43678)
NDUFV2 (human) = NDUFV2 (human) (UniProt P19404)
Sequence of NDUFV2 (human) (P19404 33-249 limits assumed): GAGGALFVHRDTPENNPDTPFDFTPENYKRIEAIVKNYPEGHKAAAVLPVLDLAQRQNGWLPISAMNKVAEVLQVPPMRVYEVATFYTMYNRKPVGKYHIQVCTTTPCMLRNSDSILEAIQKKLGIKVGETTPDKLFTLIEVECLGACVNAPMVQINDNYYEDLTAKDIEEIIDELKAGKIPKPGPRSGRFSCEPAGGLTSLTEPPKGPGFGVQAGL

NFUl (human) = NFUl (human) (UniProt Q9UMS0)
NME4 (human) = NME4 (human) (UniProt O00746)
Sequence of NME4 (human) (O00746 29-187 limits assumed): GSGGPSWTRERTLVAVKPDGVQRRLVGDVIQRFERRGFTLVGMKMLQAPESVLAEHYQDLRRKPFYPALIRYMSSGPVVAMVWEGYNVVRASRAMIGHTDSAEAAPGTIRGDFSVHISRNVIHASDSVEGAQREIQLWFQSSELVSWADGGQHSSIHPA

NUDT19 (human) = NUDT19 (human) (UniProt A8MXV4)
OGDH (human) = OGDH (human) (UniProt Q02218)
OXA1L (human) = OXA1L (human) (UniProt Q15070)
PDPR (human) = PDPR (human) (UniProt Q8NCN5)
PMPCA (human) = PMPCA (human) (UniProt Q10713)
Sequence of PMPCA (human) (Q10713 34-525 limits assumed): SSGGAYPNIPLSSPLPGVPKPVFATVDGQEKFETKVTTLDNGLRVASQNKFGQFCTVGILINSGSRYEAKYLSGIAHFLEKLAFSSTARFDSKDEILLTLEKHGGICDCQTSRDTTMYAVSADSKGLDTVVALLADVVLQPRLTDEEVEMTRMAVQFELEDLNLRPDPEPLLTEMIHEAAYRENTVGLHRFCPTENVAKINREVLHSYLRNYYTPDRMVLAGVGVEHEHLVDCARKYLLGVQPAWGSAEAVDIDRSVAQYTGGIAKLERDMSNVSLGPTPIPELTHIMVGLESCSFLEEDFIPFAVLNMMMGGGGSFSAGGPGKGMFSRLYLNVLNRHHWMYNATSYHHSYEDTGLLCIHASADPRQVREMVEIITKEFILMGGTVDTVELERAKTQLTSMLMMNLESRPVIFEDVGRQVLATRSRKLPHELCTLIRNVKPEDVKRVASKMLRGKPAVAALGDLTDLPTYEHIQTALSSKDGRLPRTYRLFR

POLG2 (human) = POLG2 (human) (UniProt Q9UHN1)
POLRMT (human) = POLRMT (human) (UniProt O00411)
PPIF (human) = PPIF (human) (UniProt P30405)
PRKCA (human) = PRKCA (human) (UniProt P17252)
SDHA (human) = SDHA (human) (UniProt P31040)
Sequence of SDHA (human) (P31040 43-664 limits assumed): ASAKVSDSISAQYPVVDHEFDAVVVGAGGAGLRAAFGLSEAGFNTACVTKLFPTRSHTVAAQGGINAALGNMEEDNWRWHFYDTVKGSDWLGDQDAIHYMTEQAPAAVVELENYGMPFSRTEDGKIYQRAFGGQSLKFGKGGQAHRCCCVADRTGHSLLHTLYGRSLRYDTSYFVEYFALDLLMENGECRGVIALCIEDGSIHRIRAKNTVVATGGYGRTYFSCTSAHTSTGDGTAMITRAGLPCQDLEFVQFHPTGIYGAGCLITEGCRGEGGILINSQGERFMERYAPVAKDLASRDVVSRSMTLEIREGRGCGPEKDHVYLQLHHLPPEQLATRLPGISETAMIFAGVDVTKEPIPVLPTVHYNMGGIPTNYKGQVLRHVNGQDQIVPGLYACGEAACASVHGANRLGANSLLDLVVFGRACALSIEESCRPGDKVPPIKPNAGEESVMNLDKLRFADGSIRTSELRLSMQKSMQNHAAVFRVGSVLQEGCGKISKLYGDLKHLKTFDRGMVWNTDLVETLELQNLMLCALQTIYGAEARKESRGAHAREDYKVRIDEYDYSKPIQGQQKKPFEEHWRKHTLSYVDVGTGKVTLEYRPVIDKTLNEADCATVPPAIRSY

SLIRP (human) = SLIRP (human) (UniProt Q9GZT3)
TAC01 (human) = TAC01 (human) (UniProt Q9BSH4)
THNSL1 (human) = THNSL1 (human) (UniProt Q8IYQ7)
VARS2 (human) = VARS2 (human) (UniProt Q5ST30)
WARS2 (human) = WARS2 (human) (UniProt Q9UGM6)
Sequence of WARS2 (human) (Q9UGM6 19-360 limits assumed): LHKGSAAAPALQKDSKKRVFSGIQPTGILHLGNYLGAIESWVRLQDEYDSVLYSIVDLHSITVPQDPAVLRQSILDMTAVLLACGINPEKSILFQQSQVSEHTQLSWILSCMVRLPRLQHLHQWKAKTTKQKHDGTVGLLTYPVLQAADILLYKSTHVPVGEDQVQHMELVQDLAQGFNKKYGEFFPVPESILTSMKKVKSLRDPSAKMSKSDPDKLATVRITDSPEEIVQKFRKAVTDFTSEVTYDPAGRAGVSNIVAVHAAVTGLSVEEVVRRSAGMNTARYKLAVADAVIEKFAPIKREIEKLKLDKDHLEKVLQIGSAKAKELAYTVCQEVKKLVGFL

Sequence of AARS2 (human) (Q5JTZ9 24-985 limits assumed): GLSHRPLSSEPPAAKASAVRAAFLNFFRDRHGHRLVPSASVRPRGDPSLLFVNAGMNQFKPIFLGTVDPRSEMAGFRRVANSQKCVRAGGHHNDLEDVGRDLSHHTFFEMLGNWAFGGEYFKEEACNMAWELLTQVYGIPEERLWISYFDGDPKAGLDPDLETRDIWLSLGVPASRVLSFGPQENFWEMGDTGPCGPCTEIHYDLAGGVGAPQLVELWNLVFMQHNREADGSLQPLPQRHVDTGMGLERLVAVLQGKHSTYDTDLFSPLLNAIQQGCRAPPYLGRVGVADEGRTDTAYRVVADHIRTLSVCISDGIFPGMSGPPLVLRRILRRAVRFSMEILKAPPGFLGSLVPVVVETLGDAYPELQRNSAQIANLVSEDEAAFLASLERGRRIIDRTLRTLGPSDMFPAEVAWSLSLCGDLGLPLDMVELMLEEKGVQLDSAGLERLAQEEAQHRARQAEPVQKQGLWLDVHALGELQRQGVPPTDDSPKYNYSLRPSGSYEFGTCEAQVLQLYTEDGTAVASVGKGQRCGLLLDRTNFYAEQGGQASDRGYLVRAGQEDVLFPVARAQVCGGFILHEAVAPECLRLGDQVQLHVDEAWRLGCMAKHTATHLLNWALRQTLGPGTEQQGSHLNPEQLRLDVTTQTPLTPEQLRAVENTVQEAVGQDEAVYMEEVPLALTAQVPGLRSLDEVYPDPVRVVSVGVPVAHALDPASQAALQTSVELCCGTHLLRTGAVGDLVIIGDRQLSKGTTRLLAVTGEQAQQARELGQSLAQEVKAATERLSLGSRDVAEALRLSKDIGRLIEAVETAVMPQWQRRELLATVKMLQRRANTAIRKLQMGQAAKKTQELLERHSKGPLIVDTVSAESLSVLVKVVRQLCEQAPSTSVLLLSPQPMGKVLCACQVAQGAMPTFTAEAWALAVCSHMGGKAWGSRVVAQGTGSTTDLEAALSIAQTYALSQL

FlagBirA-ClpP (WT) (from UniProt P06709 1-321; Q16740 57-277) (enzyme)
Log2 Fold change (vs control) (AARS2 (human)): -5.73 log2
Log2 Fold change (vs control) (ABAT (human)): -2.58 log2
Log2 Fold change (vs control) (ACADVL (human)): 0.55 log2
Log2 Fold change (vs control) (ACAT1 (human)): -0.59 log2
Log2 Fold change (vs control) (AFG3L2 (human)): -0.14 log2
Log2 Fold change (vs control) (ALDH1L2 (human)): -6.04 log2
Log2 Fold change (vs control) (ARG2 (human)): -0.16 log2
Log2 Fold change (vs control) (C8orf82 (human)): -1.19 log2
Log2 Fold change (vs control) (CLYBL (human)): -1.63 log2
Log2 Fold change (vs control) (COQ8A (human)): -4.74 log2
Log2 Fold change (vs control) (ERAL1 (human)): -6.19 log2
Log2 Fold change (vs control) (FMC1 (human)): -6.86 log2
Log2 Fold change (vs control) (GATC (human)): -5.98 log2
Log2 Fold change (vs control) (GFM1 (human)): -1.08 log2
Log2 Fold change (vs control) (GLUD1 (human)): -1.63 log2
Log2 Fold change (vs control) (HARS2 (human)): -1.3 log2
Log2 Fold change (vs control) (HIBCH (human)): -1.55 log2
Log2 Fold change (vs control) (HINT2 (human)): -1.17 log2
Log2 Fold change (vs control) (IDH3A (human)): -2 log2
Log2 Fold change (vs control) (LARS2 (human)): -0.14 log2
Log2 Fold change (vs control) (MARS2 (human)): -4.52 log2
Log2 Fold change (vs control) (MMAB (human)): -0.37 log2
Log2 Fold change (vs control) (MRPL19 (human)): -3.51 log2
Log2 Fold change (vs control) (MRPL21 (human)): -4.52 log2
Log2 Fold change (vs control) (MRPL40 (human)): -5.09 log2
Log2 Fold change (vs control) (MRPL46 (human)): -6.09 log2
Log2 Fold change (vs control) (MRPL55 (human)): -5.25 log2
Log2 Fold change (vs control) (MRPS11 (human)): -4.25 log2
Log2 Fold change (vs control) (MRPS16 (human)): -3.81 log2
Log2 Fold change (vs control) (MRPS17 (human)): -4.25 log2
Log2 Fold change (vs control) (MRPS7 (human)): -2.77 log2
Log2 Fold change (vs control) (MTHFD1L (human)): -0.39 log2
Log2 Fold change (vs control) (NDUFA2 (human)): -6.32 log2
Log2 Fold change (vs control) (NDUFV2 (human)): -5.96 log2
Log2 Fold change (vs control) (NFUl (human)): -4.32 log2
Log2 Fold change (vs control) (NME4 (human)): -1.16 log2
Log2 Fold change (vs control) (NUDT19 (human)): -3.1 log2
Log2 Fold change (vs control) (OGDH (human)): -3.7 log2
Log2 Fold change (vs control) (OXA1L (human)): -3 log2
Log2 Fold change (vs control) (PDPR (human)): -4.95 log2
Log2 Fold change (vs control) (PMPCA (human)): -1.21 log2
Log2 Fold change (vs control) (POLG2 (human)): -5.29 log2
Log2 Fold change (vs control) (POLRMT (human)): -2.95 log2
Log2 Fold change (vs control) (PPIF (human)): -1.81 log2
Log2 Fold change (vs control) (PRKCA (human)): -3.58 log2
Log2 Fold change (vs control) (SDHA (human)): -0.94 log2
Log2 Fold change (vs control) (SLIRP (human)): -0.25 log2
Log2 Fold change (vs control) (TAC01 (human)): -4.82 log2
Log2 Fold change (vs control) (THNSL1 (human)): -1.55 log2
Log2 Fold change (vs control) (VARS2 (human)): -5.52 log2
Log2 Fold change (vs control) (WARS2 (human)): -1.27 log2
